Changes are numbered by the printed parent chain. In names and notes the source's numbering stands.
How the values were obtained:
[1] = biological target: T1, avLOX (Aerococcus viridans L-lactate oxidase) (Aerococcus viridans, UniProt Q44467); assay: stopped-flow anaerobic FMN reduction, […] nm, hyperbolic fit; format: biochemical; details: pH 5.5, 20 °C, 50 mM potassium phosphate, read-out: Enzyme / Wild-type avLOX / Reaction pH / 5.5
T1 construct: wild type from Roche (grade 1, lyophilized); Y215 variants from plasmid pLO-1 in E. coli BL21 (DE3), no tag stated; missing residues 1-7 modeled for simulation only
T1 sequence (Q44467 1-374): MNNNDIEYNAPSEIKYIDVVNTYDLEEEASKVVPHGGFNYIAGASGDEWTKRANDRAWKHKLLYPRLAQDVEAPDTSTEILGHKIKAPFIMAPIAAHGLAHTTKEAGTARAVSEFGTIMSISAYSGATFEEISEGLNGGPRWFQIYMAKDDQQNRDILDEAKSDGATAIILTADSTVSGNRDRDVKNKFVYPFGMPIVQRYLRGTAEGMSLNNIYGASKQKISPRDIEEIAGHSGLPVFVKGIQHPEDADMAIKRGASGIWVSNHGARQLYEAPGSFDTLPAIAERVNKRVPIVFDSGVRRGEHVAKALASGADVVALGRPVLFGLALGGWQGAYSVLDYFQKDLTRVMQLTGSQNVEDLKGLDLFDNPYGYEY

C[C@H](O)C(=O)O [2] = assay: steady-state initial rates; format: biochemical, Aerococcus viridans; details: pH 6.5, 20 °C, air-saturated (250 μM O2), 50 mM potassium phosphate
C[C@H](O)C(=O)O [3] = assay: purified protein; details: pH 6.5, 20 °C, air-saturated (250 μM O2), 50 mM potassium phosphate
purified protein = substrate: C[C@H](O)C(=O)O; assay: purified protein; details: pH 6.5, 20 °C, air-saturated (250 μM O2), 50 mM potassium phosphate; remark: listed apart in the source
[4] = biological target: the molecule itself; assay: crystal structure; hanging drop vapor diffusion, 20 °C; 10 mg/mL protein in 50 mM potassium phosphate pH 7.0 mixed with 30% polyethylene glycol, 50 mM Tris-HCl pH 8.0, 50 mM pyruvate; spacegroup P2_(1), 2.6 Å

Q: With C[C@H](O)C(=O)O [L-lactate] as the molecule, how does the Kd [1] read?
A: Its Kd is 3 ± 0.4 mM.

Q: “avLOX (Aerococcus viridans L-lactate oxidase) (Aerococcus viridans ATCC 11563 = CCUG 4311; Y215F)” was tested. Which Km (C[C@H](O)C(=O)O [2]) did it give?
A: The Km was 130 ± 10 µM.

Q: What about the kcat (C[C@H](O)C(=O)O [2]) of the same molecule?
A: Its kcat is 22 ± 2 s⁻¹.

Q: With “avLOX (Aerococcus viridans L-lactate oxidase) (Aerococcus viridans ATCC 11563 = CCUG 4311; Y215H)” as the molecule, how does the Km (C[C@H](O)C(=O)O [3]) read?
A: Its Km is 520 ± 120 µM.

B1: avLOX (Aerococcus viridans L-lactate oxidase) (Aerococcus viridans ATCC 11563 = CCUG 4311) (protein)
chain: T1 sequence (Q44467 1-374)
Q: With B1 as the molecule, how does the Km (purified protein) read?
A: The Km was 500 ± 100 µM.

Q: What about the kcat (purified protein) of the same molecule?
A: Its kcat is 88 ± 2 s⁻¹.

B2: Aerococcus viridans L-lactate oxidase Y215F variant (enzyme)
chain: T1 sequence (Q44467 1-374) with Y215F
notes: also called Y215F avLOX; avLOX Y215F mutant
Q: For B2, which “stoichiometry N” value [4] is on record?
A: The value was 4.
